The values below come from paper PMC9727157, “The transmembrane domains mediate oligomerization of the human ZIP4 transporter in vivo” (Scientific Reports, 2022).

This data set deals with the molecule itself. The experiment in a line: fluorescence correlation spectroscopy (FCS) with molecular brightness analysis; living transfected HEK293 cells, upper plasma membrane centred in the confocal volume; 23 °C, HEPES-buffered MEM without phenol red; 100 s (10 x 10 s); brightness compared with CD-86/eGFP (monomer) and CD-86/eGFP/eGFP (tandem, dimer) controls.

B1: full-length human ZIP4 tagged with eGFP (hZIP4/eGFP) (natural protein, UniProt Q6P5W5 23-647, looked up)
chain: SPPAGLLSLLTSGQGALDQEALGGLLNTLADRVHCANGPCGKCLSVEDALGLGEPEGSGLPPGPVLEARYVARLSAAAVLYLSNPEGTCEDARAGLWASHADHLLALLESPKALTPGLSWLLQRMQARAAGQTPKMACVDIPQLLEEAVGAGAPGSAGGVLAALLDHVRSGSCFHALPSPQYFVDFVFQQHSSEVPMTLAELSALMQRLGVGREAHSDHSHRHRGASSRDPVPLISSSNSSSVWDTVCLSARDVMAAYGLSEQAGVTPEAWAQLSPALLQQQLSGACTSQSRPPVQDQLSQSERYLYGSLATLLICLCAVFGLLLLTCTGCRGVTHYILQTFLSLAVGAVTGDAVLHLTPKVLGLHTHSEEGLSPQPTWRLLAMLAGLYAFFLFENLFNLLLPRDPEDLEDGPCGHSSHSHGGHSHGVSLQLAPSELRQPKPPHEGSRADLVAEESPELLNPEPRRLSPELRLLPYMITLGDAVHNFADGLAVGAAFASSWKTGLATSLAVFCHELPHELGDFAALLHAGLSVRQALLLNLASALTAFAGLYVALAVGVSEESEAWILAVATGLFLYVALCDMLPAMLKVRDPRPWLLFLLHNVGLLGGWTVLLLLSLYEDDITF
notes: human ZIP4 zinc transporter, full-length gene, residues 1-647; also called full-length hZIP4/eGFP; full-hZIP4/eGFP; source: HEK293 cells (HEK293T, ATCC CRL-3216), transiently transfected with 50 ng pcDNA3.1 plasmid, measured in living cells; not shown: eGFP (monomeric, A206K), C-terminal, kept
For B1, the “stoichiometry N” value came out at 2.

B2: truncated human ZIP4 (without ECD) tagged with eGFP (truncated hZIP4/eGFP) (domain or fragment, UniProt Q6P5W5 328-647, looked up)
chain: LYGSLATLLICLCAVFGLLLLTCTGCRGVTHYILQTFLSLAVGAVTGDAVLHLTPKVLGLHTHSEEGLSPQPTWRLLAMLAGLYAFFLFENLFNLLLPRDPEDLEDGPCGHSSHSHGGHSHGVSLQLAPSELRQPKPPHEGSRADLVAEESPELLNPEPRRLSPELRLLPYMITLGDAVHNFADGLAVGAAFASSWKTGLATSLAVFCHELPHELGDFAALLHAGLSVRQALLLNLASALTAFAGLYVALAVGVSEESEAWILAVATGLFLYVALCDMLPAMLKVRDPRPWLLFLLHNVGLLGGWTVLLLLSLYEDDITF
notes: human ZIP4 zinc transporter without the N-terminal extracellular domain (residues 1-327 removed); the eight transmembrane domains, residues 328-647; also called eGFP-tagged truncated ZIP4; hZIP4 lacking the ECD; source: HEK293 cells (HEK293T, ATCC CRL-3216), transiently transfected with 50 ng pcDNA3.1 plasmid, measured in living cells; not shown: eGFP (monomeric, A206K), C-terminal, kept
Turning to B2, the “stoichiometry N” value turned out to be 2.

Broadly, the stoichiometry N is a count of units in the complex or per binding partner.
